# What was measured:
# Assay in all cases: EMSA
# [1] = tested on: Protamine 2 precursor (pro P2) (Mus musculus (C57BL/6N, P1 K49A/K49A knock-in))
# [2] = tested on: Protamine 1 (WT P1) (Mus musculus (C57BL/6N background))
# [3] = tested on: Protamine 2, mature (WT P2) (Mus musculus (C57BL/6N background))
# [4] = tested on: Protamine 1 K49A (Mus musculus (C57BL/6N, P1 K49A/K49A knock-in))
substance,measurement,setting,value
~300 bp linear DNA (280 bp PCR product),Kd,[1],840 nM
same,Kd,[2],680 nM
same,Kd,[3],670 nM
same,Kd,[4],950 nM

# Source: doi:10.1101/2021.09.16.460631
